# Test results taken from patent publication US20210380680A1 (ZLLP, published 2021).
# Read-outs that look alike come from different tables or passages of the source.
# Tests used:
# [1] = molecular target: T1, CLDN18.2 endogenously expressed on SNU620 gastric cancer cells (UniProt P56856-2 1-261, limits assumed); assay: FACS Exp. 3, SNU620 cells
# T1 construct: whole, on cells; also called SU620
# [2] = molecular target: T2, human Claudin 18.2 (CLDN18.2) (human, UniProt P56856-2 1-261); assay: FACS Exp. 1, MFI ratio CHO-18.2 over CHO-18.1
# T2 construct: whole, on cells; recombinantly expressed on CHO, HEK293, NCI-N87, NUGC4 or PANC-1 cells; also called CHO-CLDN18.2
# [3] = molecular target: T2, human Claudin 18.2 (CLDN18.2); assay: cell-based or functional assay
# [4] = molecular target: T2, human Claudin 18.2 (CLDN18.2); assay: FACS on CHO-CLDN18.2 cells
# [5] = molecular target: T2, human Claudin 18.2 (CLDN18.2); assay: cell-based or functional assay; remark: listed apart in the source
# [6] = molecular target: T2, human Claudin 18.2 (CLDN18.2); assay: FACS on CHO-CLDN18.2 cells; remark: listed apart in the source
Binder,MFI_SNU620 (@30 ug/ml) [1],MFI_CHO-18.2/CHO-18.1 (@30 ug/ml) [2],EC50 [6],other results
"hz282-2 (antibody, V domains shown, humanized IgG; constant regions not specified) VH: QVQLQESGPGLVKPSETLSLTCTVSGFSLTSYNVYWIRQPPGKGLEWIGVIWNTGATRYNSALKSRVTISKDTSKNQVSLKLSSVTAADTAVYYCARDSAMPAIPFAYWGQGTLVTVSS VL: DIVMTQSPDSLAVSLGERATINCKSSQSLFGSVRQKNYLAWYQQKPGQPPKLLIYLASTRESGVPDRFSGSGSGTDFTLTISSLQAEDVAVYYCQQYYDIPWTFGGGTKVEIK",1060 MFI,521,–,–
"hz282-14 (antibody, V domains shown, humanized IgG; constant regions not specified) VH: QVQLQESGPGLVKPSETLSLTCTVSGFSLTSYNVYWIRQPPGKGLEWIGVIWNTGATRYNSALKSRVTISKDTSKNQVSLKLSSVTAADTAVYYCARDSAMPAIPFAYWGQGTLVTVSS VL: DIQMTQSPSSLSASVGDRVTITCKSSQSLFGSVRQKNYLAWYQQKPGKSPKLLIYLASTRESGVPDRFSGSGSGTDFTLTISSLQPEDFAKYYCQQYYDIPWTFGGGTKVEIK",1220 MFI,798,–,–
"hz282-16 (antibody, V domains shown, humanized IgG; constant regions not specified) VH: QVQLQESGPGLVKPSETLSLTCTVAGFSLTSYNVYWIRQPPGKGLEWIGVIWNTGATRYNSALKSRVTISKDTSKSQVSLKLSSVTAADTAVYYCARDSAMPAIPFAYWGQGTLVTVSS VL: DIQMTQSPSSLSASVGDRVTITCKSSQSLFGSVRQKNYLAWYQQKPGKSPKLLIYLASTRESGVPDRFSGSGSGTDFTLTISSLQPEDFAKYYCQQYYDIPWTFGGGTKVEIK",1280 MFI,550,–,–
"hz282-18 (antibody, V domains shown, humanized IgG; constant regions not specified) VH: QVQLQESGPGLVKPSETLSLTCTVSGFSLTSYNVYWIRQPPGKGLEWIGVIWNTGATRYNSALKSRVTISKDTSKNQVSLKLSSVTAADTAVYYCARDSAMPAIPFAYWGQGTLVTVSS VL: DIVMTQSPSSLSASVGDRVTINCKSSQSLFGSVRQKNYLAWYQQKPGKSPKLLIYLASTRESGVPDRFSGSGSGTDFTLTISSLQPEDFAKYYCQQYYDIPWTFGGGTKVEIK",1210 MFI,781,–,–
"hz282-7 (antibody, V domains shown, humanized IgG; constant regions not specified) VH: QVQLQESGPGLVKPSETLSLTCTVSGFSLTSYNVYWIRQPPGKGLEWIGVIWNTGATRYNSALKSRVTISKDTSKSQVSLKLSSVTAADTAVYYCARDSAMPAIPFAYWGQGTLVTVSS VL: DIVMTQSPDSLAVSLGERATINCKSSQSLFGSVRQKNYLAWYQQKPGQSPKLLIYLASTRESGVPDRFSGSGSGTDFTLTISSLQAEDVAKYYCQQYYDIPWTFGGGTKVEIK",1250 MFI,624,–,–
"hz282-6 (antibody, V domains shown, humanized IgG; constant regions not specified) VH: QVQLQESGPGLVKPSETLSLTCTVSGFSLTSYNVYWIRQPPGKGLEWIGVIWNTGATRYNSALKSRVTISKDTSKNQVSLKLSSVTAADTAVYYCARDSAMPAIPFAYWGQGTLVTVSS VL: DIVMTQSPDSLAVSLGERATINCKSSQSLFGSVRQKNYLAWYQQKPGQSPKLLIYLASTRESGVPDRFSGSGSGTDFTLTISSLQAEDVAKYYCQQYYDIPWTFGGGTKVEIK",1290 MFI,521,–,–
"413H9F8-H4L3 (antibody, V domains shown, humanized IgG; constant regions not specified) VH: EVQLVESGGGLVQPGGSLRLSCAASGFTFSSFGMHWVRQAPGKGLEWVAYISSGSSPIYYVDKLKGRFTVSRDNAKNSLYLQMTSLRAEDTAVYYCARAGYAVRNALDYWGQGTLVTVSS VL: DIVMTQSPDSLAVSLGERATINCKSSQSLLNVGNQKNYLAWYQQKPGQPPKLLIYGASTRESGVPDRFIGSGSGTDFTLTISSLQAEDVAVYFCQNDLFYPLTFGGGTKVEIK",–,–,–,"% ADCC @ 6.67 nM, NCI-N87-CLDN18.2, FcR-TANK [3]: 15.4%; ADCC EC50, NCI-N87-CLDN18.2, FcR-TANK [3]: 0.47 nM; EC50 [4]: 2.62 nM; % specific cytotoxicity @ 6.67 nM, NUGC4-CLDN18.2, PBMC [5]: 27.8%; ADCC EC50, NUGC4-CLDN18.2, PBMC [5]: 7.01 nM"
"413H9F8-cp3 (antibody, V domains shown, humanized IgG; constant regions not specified) VH: DVQLVESGGGLVQPGGSLRLSCAASGFTFSSFGMHWVRQAPGKGLEWVAYISSGSSPIYYVDKLKGRFTVSRDNAKNSLYLQMNSLRAEDTAVYYCARAGYAVRNALDYWGQGTLVTVSS VL: EIVMTQSPPTLSLSPGERVTLSCKSSQSLLNVGNQKNYLAWYQQKPGQAPRLLIYGASTRESGIPARFSGSGSGTDFTLTISSLQPEDFAVYYCQNDLFYPLTFGGGTKVEIK",–,–,2.09 nM,"% ADCC @ 6.67 nM, NCI-N87-CLDN18.2, FcR-TANK [3]: 11.1%; ADCC EC50, NCI-N87-CLDN18.2, FcR-TANK [3]: 0.22 nM; % specific cytotoxicity @ 6.67 nM, NUGC4-CLDN18.2, PBMC [5]: 30.5%; ADCC EC50, NUGC4-CLDN18.2, PBMC [5]: 5.86 nM"
"413H9F8-cp9 (antibody, V domains shown, humanized IgG; constant regions not specified) VH: DVQLVESGGGLVQPGGSLRLSCAASGFTFSSFGMHWVRQAPGKGLEWVAYISSGSSPIYYVDKLKGRFTVSRDNAKNSLYLQMNSLRAEDTAVYYCARAGYAVRNALDYWGQGTLVTVSS VL: DIVMTQSPPTLSLSPGERVTLSCKSSQSLLNVGNQKNYLAWYQQKPGQAPKLLIYGASTRESGIPDRFSGSGSGTDFTLTISSLQPEDFAVYYCQNDLFYPLTFGGGTKVEIK",–,–,2.21 nM,–
"413H9F8-cp12 (antibody, V domains shown, humanized IgG; constant regions not specified) VH: DVQLVESGGGLVQPGGSLRLSCAASGFTFSSFGMHWVRQAPGKGLEWVAYISSGSSPIYYVDKLKGRFTVSRDNAKNSLYLQMNSLRAEDTAVYYCARAGYAVRNALDYWGQGTLVTVSS VL: DIVMTQSPPTLSLSPGERVTLSCKSSQSLLNVGNQKNYLAWYQQKPGQAPKLLIYGASTRESGIPDRFSGSGSGTDFTLTISSLQPEDFAVYFCQNDLFYPLTFGGGTKVEIK",–,–,3.01 nM,–
"413H9F8-cp4 (antibody, V domains shown, humanized IgG; constant regions not specified) VH: EVQLVESGGGLVQPGGSLRLSCAASGFTFSSFGMHWVRQAPGKGLEWVSYISSGSSPIYYVDKLKGRFTISRDNAKNSLYLQMNSLRAEDTAVYYCARAGYAVRNALDYWGQGTLVTVSS VL: DIVMTQSPPTLSLSPGERVTLSCKSSQSLLNVGNQKNYLAWYQQKPGQAPRLLIYGASTRESGIPDRFSGSGSGTDFTLTISSLQPEDFAVYYCQNDLFYPLTFGGGTKVEIK",–,–,2.28 nM,–
"413H9F8-cp6 (antibody, V domains shown, humanized IgG; constant regions not specified) VH: DVQLVESGGGLVQPGGSLRLSCAASGFTFSSFGMHWVRQAPGKGLEWVAYISSGSSPIYYVDKLKGRFTVSRDNAKNSLYLQMNSLRAEDTAVYYCARAGYAVRNALDYWGQGTLVTVSS VL: DIVMTQSPPTLSLSPGERVTLSCKSSQSLLNVGNQKNYLAWYQQKPGQAPRLLIYGASTRESGIPDRFSGSGSGTDFTLTISSLQPEDFAVYYCQNDLFYPLTFGGGTKVEIK",–,–,2.32 nM,–
"413H9F8-cp5 (antibody, V domains shown, humanized IgG; constant regions not specified) VH: DVQLVESGGGLVQPGGSLRLSCAASGFTFSSFGMHWVRQAPGKGLEWVAYISSGSSPIYYVDKLKGRFTISRDNAKNSLYLQMNSLRAEDTAVYYCARAGYAVRNALDYWGQGTLVTVSS VL: DIVMTQSPPTLSLSPGERVTLSCKSSQSLLNVGNQKNYLAWYQQKPGQAPRLLIYGASTRESGIPDRFSGSGSGTDFTLTISSLQPEDFAVYYCQNDLFYPLTFGGGTKVEIK",–,–,2.54 nM,"% ADCC @ 6.67 nM, NCI-N87-CLDN18.2, FcR-TANK [3]: 14.1%; ADCC EC50, NCI-N87-CLDN18.2, FcR-TANK [3]: 0.27 nM; % specific cytotoxicity @ 6.67 nM, NUGC4-CLDN18.2, PBMC [5]: 29.6%; ADCC EC50, NUGC4-CLDN18.2, PBMC [5]: 7.75 nM"
"413H9F8-cp8 (antibody, V domains shown, humanized IgG; constant regions not specified) VH: DVQLVESGGGLVQPGGSLRLSCAASGFTFSSFGMHWVRQAPGKGLEWVAYISSGSSPIYYVDKLKGRFTISRDNAKNSLYLQMNSLRAEDTAVYYCARAGYAVRNALDYWGQGTLVTVSS VL: DIVMTQSPPTLSLSPGERVTLSCKSSQSLLNVGNQKNYLAWYQQKPGQAPKLLIYGASTRESGIPDRFSGSGSGTDFTLTISSLQPEDFAVYYCQNDLFYPLTFGGGTKVEIK",–,–,2.72 nM,"% ADCC @ 6.67 nM, NCI-N87-CLDN18.2, FcR-TANK [3]: 13.1%; ADCC EC50, NCI-N87-CLDN18.2, FcR-TANK [3]: 0.27 nM; % specific cytotoxicity @ 6.67 nM, NUGC4-CLDN18.2, PBMC [5]: 27.7%; ADCC EC50, NUGC4-CLDN18.2, PBMC [5]: 8.85 nM"
"413H9F8-cp11 (antibody, V domains shown, humanized IgG; constant regions not specified; also called 413H9F8-cp811) VH: DVQLVESGGGLVQPGGSLRLSCAASGFTFSSFGMHWVRQAPGKGLEWVAYISSGSSPIYYVDKLKGRFTISRDNAKNSLYLQMNSLRAEDTAVYYCARAGYAVRNALDYWGQGTLVTVSS VL: DIVMTQSPPTLSLSPGERVTLSCKSSQSLLNVGNQKNYLAWYQQKPGQAPKLLIYGASTRESGIPDRFSGSGSGTDFTLTISSLQPEDFAVYFCQNDLFYPLTFGGGTKVEIK",–,–,2.61 nM,–
"413H9F8-cp7 (antibody, V domains shown, humanized IgG; constant regions not specified) VH: EVQLVESGGGLVQPGGSLRLSCAASGFTFSSFGMHWVRQAPGKGLEWVSYISSGSSPIYYVDKLKGRFTISRDNAKNSLYLQMNSLRAEDTAVYYCARAGYAVRNALDYWGQGTLVTVSS VL: DIVMTQSPPTLSLSPGERVTLSCKSSQSLLNVGNQKNYLAWYQQKPGQAPKLLIYGASTRESGIPDRFSGSGSGTDFTLTISSLQPEDFAVYYCQNDLFYPLTFGGGTKVEIK",–,–,2.47 nM,"% ADCC @ 6.67 nM, NCI-N87-CLDN18.2, FcR-TANK [3]: 13.3%; ADCC EC50, NCI-N87-CLDN18.2, FcR-TANK [3]: 0.28 nM; % specific cytotoxicity @ 6.67 nM, NUGC4-CLDN18.2, PBMC [5]: 29.7%; ADCC EC50, NUGC4-CLDN18.2, PBMC [5]: 6.68 nM"
"413H9F8-cp10 (antibody, V domains shown, humanized IgG; constant regions not specified) VH: EVQLVESGGGLVQPGGSLRLSCAASGFTFSSFGMHWVRQAPGKGLEWVSYISSGSSPIYYVDKLKGRFTISRDNAKNSLYLQMNSLRAEDTAVYYCARAGYAVRNALDYWGQGTLVTVSS VL: DIVMTQSPPTLSLSPGERVTLSCKSSQSLLNVGNQKNYLAWYQQKPGQAPKLLIYGASTRESGIPDRFSGSGSGTDFTLTISSLQPEDFAVYFCQNDLFYPLTFGGGTKVEIK",–,–,3.69 nM,–
